Test results: patent publication US20070161078A1

Key:
[1] = molecular target: MBP.NS1 H3N2 (RSKV) (influenza A H3N2) (UniProt Q67253); experiment: G assay titration
[2] = molecular target: MBP.NS1 H1N1 (RSEV) (influenza A H1N1) (UniProt A3DRP6); experiment: G assay titration
[3] = molecular target: MBP.NS1 H3N2 (RSKV) (influenza A H3N2) (UniProt Q67253); experiment: titration, direct binding sandwich assay
[4] = molecular target: Peptide 1958 H5N1A (EPEV) (influenza A H5N1); experiment: G assay titration
[5] = molecular target: MBP.NS1 H3N2 (RSKV) (influenza A H3N2) (UniProt Q67253); experiment: direct binding assay titration
[6] = molecular target: MBP.NS1 H5N1A (EPEV) (influenza A H5N1) (UniProt O56264); experiment: direct binding assay titration
[7] = molecular target: MBP.NS1 H1N1 (RSEV) (influenza A H1N1) (UniProt A3DRP6); experiment: direct binding assay titration
[8] = molecular target: MBP.NS1 H5N1B (ESEV) (influenza A H5N1) (UniProt Q6DP28); experiment: direct binding assay titration
[9] = molecular target: MBP.NS1 H5N1A (EPEV) (influenza A H5N1) (UniProt O56264); experiment: G assay titration
[10] = molecular target: MBP.NS1 H5N1B (ESEV) (influenza A H5N1) (UniProt Q6DP28); experiment: G assay titration
[11] = molecular target: MBP.NS1 H5N1A (EPEV) (influenza A H5N1) (UniProt O56264); experiment: titration, direct binding sandwich assay
[12] = molecular target: MBP.NS1 H1N1 (RSEV) (influenza A H1N1) (UniProt A3DRP6); experiment: titration, direct binding sandwich assay
[13] = molecular target: MBP.NS1 H5N1B (ESEV) (influenza A H5N1) (UniProt Q6DP28); experiment: titration, direct binding sandwich assay

Substance	EC50 [1] [µg/mL]	EC50 [2] [µg/mL]	EC50 [4] [µg/mL]	also measured
INADL d8 (from UniProt Q8NI35 1431-1525)	0.9	3.2		EC50 [3]: 0.869 µg/mL
MAST2 d1 (from UniProt Q6P0Q8 1098-1197)	> 50	2	5.5	
Magi3 d1 (from UniProt Q5TCQ9 18-106)	3	3.1		
NeDLG d1,2 (from UniProt Q92796 124-316)	> 50	1.1		
Outer Membrane Protein (from UniProt P08515 1-218)	13	1.2		EC50 [5]: 3 µg/mL; EC50 [6]: 12.5 µg/mL; EC50 [7]: 6 µg/mL; EC50 [8]: 0.8 µg/mL; EC50 [9]: 27 µg/mL; EC50 [10]: 0.2 µg/mL; EC50 [11]: 12.6 µg/mL; EC50 [12]: 1.25 µg/mL; EC50 [13]: 0.18 µg/mL
PSD95 d2 (from UniProt P31016 160-246)			3.8	
